Assay results from paper PMC3409459, “Absorption, distribution, metabolism and excretion of peginesatide, a novel erythropoiesis-stimulating agent, in rats” (Xenobiotica; the Fate of Foreign Compounds in Biological …, 2011).

Experiment: Tissue distribution of radioactivity by LSC following combustion, albino rats
Type: in vivo, male Sprague-Dawley (albino) rats
Conditions: for Concentration of the radioactivity, Pituitary / Concentration of the radioactivity, Plasma / Concentration of the radioactivity, Skeletal muscle / Concentration of the radioactivity, Skin / Concentration of the radioactivity, Spinal cord / Concentration of the radioactivity, Spleen / Concentration of the radioactivity, Stomach / Concentration of the radioactivity, Submandibular lymph nodes / Concentration of the radioactivity, Testes / Concentration of the radioactivity, Thymus / Concentration of the radioactivity, Thyroid gland / Concentration of the radioactivity, Urinary bladder / Concentration of the radioactivity, Adrenals / Concentration of the radioactivity, Blood / Concentration of the radioactivity, Bone (femur) / Concentration of the radioactivity, Bone marrow / Concentration of the radioactivity, Brain / Concentration of the radioactivity, Eyes / Concentration of the radioactivity, Fat / Concentration of the radioactivity, Harderian glands / Concentration of the radioactivity, Heart / Concentration of the radioactivity, Intestine / Concentration of the radioactivity, Kidneys / Concentration of the radioactivity, Liver / Concentration of the radioactivity, Lungs / Concentration of the radioactivity, Pancreas: mean ± SD, n=3; for tissue to plasma ratios: single IV 5 mg·kg^−1
Procedure: Total captured radioactivity was subsequently measured via LSC.
Male Sprague-Dawley (albino) rats (n = 21; three per time point) were administered a single IV dose of 5 mg·kg^−1 [^14C]-peginesatide (27.5 μCi/kg) and tissue concentrations of radioactivity determined at 0.25, 6, and 24 h, and 7,14,30 and 60 days following dosing. Similarly, male Long Evans (pigmented) rats (n = 21; three per time point) were administered a single IV dose of 5 mg-kg^−1 [^14C]-peginesatide and plasma, skin, and eye concentrations of radioactivity were measured at the various time points through 60 days after dosing. At each time point, blood was collected, the animals sacrificed, and tissues excised. Tissues collected from the Sprague-Dawley rats included blood, plasma, adrenals, bone marrow, brain, eyes, fat, femur, Harderian glands, heart, hypophysis, intestine, kidneys, lungs, liver, pancreas, skeletal muscle, skin, spinal cord, spleen, stomach, submaxillary glands, testes, thymus, thyroid gland, and urinary bladder. Plasma, eyes, non-pigmented skin, and pigmented skin were collected from Long Evans rats. All tissue samples were measured for radioactivity by LSC following combustion. The liver and intestine were first homogenized in distilled water (20% w/v) prior to analysis. The concentration of radioactivity in the blood, plasma, and tissues was calculated and expressed as ug equiv·g^-1 or mLbased on the LSC counts and the specific activity of the dosing solution.

[1] = 60 Days after single IV 5 mg·kg^−1, LSC
[2] = 0.25 h after single IV 5 mg·kg^−1, LSC
[3] = 6 h after single IV 5 mg·kg^−1, LSC
[4] = 24 h after single IV 5 mg·kg^−1, LSC

Substance: Peginesatide
- Concentration of the radioactivity, Pituitary [1]: 4.32 ± 0.289 μg equiv·g^−1 or mL
- Concentration of the radioactivity, Plasma [1]: 0.232 ± 0.042 μg equiv·g^−1 or mL
- Concentration of the radioactivity, Skeletal muscle [1]: 0.085 ± 0.021 μg equiv·g^−1 or mL
- Concentration of the radioactivity, Skin [1]: 0.394 ± 0.080 μg equiv·g^−1 or mL
- Concentration of the radioactivity, Spinal cord [1]: 0.036 ± 0.018 μg equiv·g^−1 or mL
- Concentration of the radioactivity, Spleen [1]: 3.40 ± 0.480 μg equiv·g^−1 or mL
- Concentration of the radioactivity, Stomach [1]: 0.590 ± 0.242 μg equiv·g^−1 or mL
- Concentration of the radioactivity, Submandibular lymph nodes [1]: 8.74 ± 1.22 μg equiv·g^−1 or mL
- Concentration of the radioactivity, Testes [1]: 5.10 ± 2.17 μg equiv·g^−1 or mL
- Concentration of the radioactivity, Thymus [1]: 1.15 ± 0.155 μg equiv·g^−1 or mL
- Concentration of the radioactivity, Thyroid gland [1]: 8.03 ± 1.45 μg equiv·g^−1 or mL
- Concentration of the radioactivity, Urinary bladder [1]: 0.967 ± 0.188 μg equiv·g^−1 or mL
- Concentration of the radioactivity, Adrenals [2]: 8.45 ± 0.517 μg equiv·g^−1 or mL
- Concentration of the radioactivity, Blood [2]: 80.9 ± 1.90 μg equiv·g^−1 or mL
- Concentration of the radioactivity, Bone (femur) [2]: 1.95 ± 0.128 μg equiv·g^−1 or mL
- Concentration of the radioactivity, Bone marrow [2]: 9.66 ± 0.367 μg equiv·g^−1 or mL
- Concentration of the radioactivity, Brain [2]: 1.18 ± 0.030 μg equiv·g^−1 or mL
- Concentration of the radioactivity, Eyes [2]: 0.346 ± 0.029 μg equiv·g^−1 or mL
- Concentration of the radioactivity, Fat [2]: 0.861 ± 0.096 μg equiv·g^−1 or mL
- Concentration of the radioactivity, Harderian glands [2]: 1.15 ± 0.357 μg equiv·g^−1 or mL
- Concentration of the radioactivity, Heart [2]: 6.33 ± 0.512 μg equiv·g^−1 or mL
- Concentration of the radioactivity, Intestine [2]: 1.47 ± 0.158 μg equiv·g^−1 or mL
- Concentration of the radioactivity, Kidneys [2]: 11.2 ± 1.48 μg equiv·g^−1 or mL
- Concentration of the radioactivity, Liver [2]: 7.03 ± 0.613 μg equiv·g^−1 or mL
- Concentration of the radioactivity, Lungs [2]: 8.46 ± 0.824 μg equiv·g^−1 or mL
- Concentration of the radioactivity, Pancreas [2]: 2.56 ± 0.036 μg equiv·g^−1 or mL
- Concentration of the radioactivity, Pituitary [2]: 13.2 ± 1.08 μg equiv·g^−1 or mL
- Concentration of the radioactivity, Plasma [2]: 131 ± 3.86 μg equiv·g^−1 or mL
- Concentration of the radioactivity, Skeletal muscle [2]: 0.569 ± 0.100 μg equiv·g^−1 or mL
- Concentration of the radioactivity, Skin [2]: 0.376 ± 0.103 μg equiv·g^−1 or mL
- Concentration of the radioactivity, Spinal cord [2]: 0.909 ± 0.289 μg equiv·g^−1 or mL
- Concentration of the radioactivity, Spleen [2]: 4.62 ± 0.185 μg equiv·g^−1 or mL
- Concentration of the radioactivity, Stomach [2]: 1.32 ± 0.257 μg equiv·g^−1 or mL
- Concentration of the radioactivity, Submandibular lymph nodes [2]: 2.57 ± 0.038 μg equiv·g^−1 or mL
- Concentration of the radioactivity, Testes [2]: 1.14 ± 0.083 μg equiv·g^−1 or mL
- Concentration of the radioactivity, Thymus [2]: 0.669 ± 0.115 μg equiv·g^−1 or mL
- Concentration of the radioactivity, Thyroid gland [2]: 8.25 ± 1.42 μg equiv·g^−1 or mL
- Concentration of the radioactivity, Urinary bladder [2]: 2.40 ± 1.32 μg equiv·g^−1 or mL
- Concentration of the radioactivity, Adrenals [3]: 7.83 ± 1.38 μg equiv·g^−1 or mL
- Concentration of the radioactivity, Blood [3]: 60.9 ± 4.36 μg equiv·g^−1 or mL
- Concentration of the radioactivity, Bone (femur) [3]: 1.53 ± 0.555 μg equiv·g^−1 or mL
- Concentration of the radioactivity, Bone marrow [3]: 8.66 ± 2.79 μg equiv·g^−1 or mL
- Concentration of the radioactivity, Brain [3]: 0.939 ± 0.015 μg equiv·g^−1 or mL
- Concentration of the radioactivity, Eyes [3]: 0.779 ± 0.168 μg equiv·g^−1 or mL
- Concentration of the radioactivity, Fat [3]: 0.923 ± 0.308 μg equiv·g^−1 or mL
- Concentration of the radioactivity, Harderian glands [3]: 1.91 ± 0.183 μg equiv·g^−1 or mL
- Concentration of the radioactivity, Heart [3]: 7.71 ± 1.29 μg equiv·g^−1 or mL
- Concentration of the radioactivity, Intestine [3]: 3.07 ± 0.233 μg equiv·g^−1 or mL
- Concentration of the radioactivity, Kidneys [3]: 10.6 ± 1.16 μg equiv·g^−1 or mL
- Concentration of the radioactivity, Liver [3]: 7.51 ± 0.438 μg equiv·g^−1 or mL
- Concentration of the radioactivity, Lungs [3]: 8.37 ± 1.27 μg equiv·g^−1 or mL
- Concentration of the radioactivity, Pancreas [3]: 3.83 ± 0.582 μg equiv·g^−1 or mL
- Concentration of the radioactivity, Pituitary [3]: 13.9 ± 2.71 μg equiv·g^−1 or mL
- Concentration of the radioactivity, Plasma [3]: 99.6 ± 2.94 μg equiv·g^−1 or mL
- Concentration of the radioactivity, Skeletal muscle [3]: 0.447 ± 0.037 μg equiv·g^−1 or mL
- Concentration of the radioactivity, Skin [3]: 1.41 ± 0.175 μg equiv·g^−1 or mL
- Concentration of the radioactivity, Spinal cord [3]: 0.662 ± 0.070 μg equiv·g^−1 or mL
- Concentration of the radioactivity, Spleen [3]: 5.51 ± 0.776 μg equiv·g^−1 or mL
- Concentration of the radioactivity, Stomach [3]: 2.69 ± 0.013 μg equiv·g^−1 or mL
- Concentration of the radioactivity, Submandibular lymph nodes [3]: 4.25 ± 0.140 μg equiv·g^−1 or mL
- Concentration of the radioactivity, Testes [3]: 4.01 ± 0.254 μg equiv·g^−1 or mL
- Concentration of the radioactivity, Thymus [3]: 1.02 ± 0.040 μg equiv·g^−1 or mL
- Concentration of the radioactivity, Thyroid gland [3]: 10.1 ± 1.79 μg equiv·g^−1 or mL
- Concentration of the radioactivity, Urinary bladder [3]: 3.53 ± 0.234 μg equiv·g^−1 or mL
- Concentration of the radioactivity, Adrenals [4]: 10.0 ± 1.15 μg equiv·g^−1 or mL
- Concentration of the radioactivity, Blood [4]: 39.7 ± 2.51 μg equiv·g^−1 or mL
- Concentration of the radioactivity, Bone (femur) [4]: 1.16 ± 0.177 μg equiv·g^−1 or mL
- Concentration of the radioactivity, Bone marrow [4]: 8.50 ± 1.23 μg equiv·g^−1 or mL
- Concentration of the radioactivity, Brain [4]: 0.646 ± 0.050 μg equiv·g^−1 or mL
- Concentration of the radioactivity, Eyes [4]: 0.806 ± 0.063 μg equiv·g^−1 or mL
- Concentration of the radioactivity, Fat [4]: 1.65 ± 0.392 μg equiv·g^−1 or mL
- Concentration of the radioactivity, Harderian glands [4]: 2.55 ± 0.105 μg equiv·g^−1 or mL
- Concentration of the radioactivity, Heart [4]: 6.28 ± 0.256 μg equiv·g^−1 or mL
- Concentration of the radioactivity, Intestine [4]: 3.10 ± 0.144 μg equiv·g^−1 or mL
- Concentration of the radioactivity, Kidneys [4]: 8.75 ± 1.47 μg equiv·g^−1 or mL
- Concentration of the radioactivity, Liver [4]: 9.26 ± 0.516 μg equiv·g^−1 or mL
- Concentration of the radioactivity, Lungs [4]: 7.22 ± 0.464 μg equiv·g^−1 or mL
- Concentration of the radioactivity, Pancreas [4]: 5.14 ± 0.582 μg equiv·g^−1 or mL
- Concentration of the radioactivity, Pituitary [4]: 13.7 ± 2.02 μg equiv·g^−1 or mL
- Concentration of the radioactivity, Plasma [4]: 64.1 ± 5.12 μg equiv·g^−1 or mL
- Concentration of the radioactivity, Skeletal muscle [4]: 0.584 ± 0.044 μg equiv·g^−1 or mL
- Concentration of the radioactivity, Skin [4]: 3.29 ± 0.308 μg equiv·g^−1 or mL
- Concentration of the radioactivity, Spinal cord [4]: 0.442 ± 0.090 μg equiv·g^−1 or mL
- Concentration of the radioactivity, Spleen [4]: 10.2 ± 1.04 μg equiv·g^−1 or mL
- Concentration of the radioactivity, Stomach [4]: 3.01 ± 0.168 μg equiv·g^−1 or mL
- Concentration of the radioactivity, Submandibular lymph nodes [4]: 5.72 ± 0.303 μg equiv·g^−1 or mL
- Concentration of the radioactivity, Testes [4]: 4.15 ± 0.605 μg equiv·g^−1 or mL
- Concentration of the radioactivity, Thymus [4]: 1.90 ± 0.201 μg equiv·g^−1 or mL
- Concentration of the radioactivity, Thyroid gland [4]: 10.2 ± 1.10 μg equiv·g^−1 or mL
- Concentration of the radioactivity, Urinary bladder [4]: 6.18 ± 0.260 μg equiv·g^−1 or mL
- tissue to plasma ratios (after 24 h, in most tissues): > 1
- tissue to plasma ratios (through at least 24 h after dosing): < 1
